Molecular target: recombinant collagen α1(XI) amino terminal domain (NTD) (UniProt P20909)
Experiment: SPR

Chain of UniProt P20909 (P20909 35-1561): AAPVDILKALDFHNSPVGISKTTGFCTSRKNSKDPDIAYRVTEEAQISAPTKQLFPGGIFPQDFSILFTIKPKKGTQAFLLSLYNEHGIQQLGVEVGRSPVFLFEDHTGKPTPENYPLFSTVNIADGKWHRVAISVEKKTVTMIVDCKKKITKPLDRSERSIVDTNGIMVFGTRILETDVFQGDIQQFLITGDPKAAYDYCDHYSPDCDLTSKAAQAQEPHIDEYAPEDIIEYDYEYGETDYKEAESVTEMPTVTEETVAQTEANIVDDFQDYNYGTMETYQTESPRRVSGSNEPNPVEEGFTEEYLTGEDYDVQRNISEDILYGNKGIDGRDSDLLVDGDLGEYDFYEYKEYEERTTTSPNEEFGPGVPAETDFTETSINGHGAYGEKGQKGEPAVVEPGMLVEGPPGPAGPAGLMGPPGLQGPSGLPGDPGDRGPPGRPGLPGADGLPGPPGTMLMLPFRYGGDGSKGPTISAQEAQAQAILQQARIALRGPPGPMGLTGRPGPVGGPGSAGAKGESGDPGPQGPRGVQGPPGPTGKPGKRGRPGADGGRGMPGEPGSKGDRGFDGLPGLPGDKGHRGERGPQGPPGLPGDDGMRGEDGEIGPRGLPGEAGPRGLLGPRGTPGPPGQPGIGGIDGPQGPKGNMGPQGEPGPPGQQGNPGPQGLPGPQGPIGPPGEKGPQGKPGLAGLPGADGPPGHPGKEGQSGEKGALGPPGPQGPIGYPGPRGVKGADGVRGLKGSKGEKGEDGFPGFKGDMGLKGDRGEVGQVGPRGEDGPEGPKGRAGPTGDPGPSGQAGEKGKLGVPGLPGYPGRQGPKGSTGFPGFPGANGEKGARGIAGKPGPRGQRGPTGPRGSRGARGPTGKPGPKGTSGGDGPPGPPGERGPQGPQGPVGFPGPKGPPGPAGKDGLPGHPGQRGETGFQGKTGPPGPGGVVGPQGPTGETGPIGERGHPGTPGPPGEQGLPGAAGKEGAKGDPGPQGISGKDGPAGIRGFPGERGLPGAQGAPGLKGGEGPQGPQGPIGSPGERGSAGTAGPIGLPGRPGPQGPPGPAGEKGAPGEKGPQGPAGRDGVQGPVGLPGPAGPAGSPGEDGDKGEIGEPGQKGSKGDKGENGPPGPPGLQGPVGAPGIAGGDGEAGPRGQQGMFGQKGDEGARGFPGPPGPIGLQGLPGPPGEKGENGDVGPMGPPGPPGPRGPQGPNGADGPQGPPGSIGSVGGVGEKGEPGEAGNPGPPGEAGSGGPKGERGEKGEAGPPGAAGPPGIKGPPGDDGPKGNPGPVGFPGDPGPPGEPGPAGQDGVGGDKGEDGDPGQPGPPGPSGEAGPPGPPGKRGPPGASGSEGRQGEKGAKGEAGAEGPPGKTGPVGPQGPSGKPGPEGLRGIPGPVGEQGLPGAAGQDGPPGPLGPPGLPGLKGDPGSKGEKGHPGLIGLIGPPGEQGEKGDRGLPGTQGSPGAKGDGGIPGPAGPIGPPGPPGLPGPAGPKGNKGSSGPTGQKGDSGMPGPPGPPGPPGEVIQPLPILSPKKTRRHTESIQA

Kd: 100 nM
Substance: Thrombospondin 1 (R&D Systems) (from UniProt P07996 19-1170) (natural protein)
